Data as given in article PMC1180672.

How the values were obtained:
[1] = target: scRPA70A (DNA-binding domain A of RPA70) (Saccharomyces cerevisiae, UniProt P22336 181-294); experiment: NMR chemical shift perturbation
[2] = target: hRPA70A (DNA-binding domain A of RPA70) (human, UniProt P27694 181-290); experiment: NMR chemical shift perturbation
Sequence of hRPA70A (DNA-binding domain A of RPA70) (P27694 181-290): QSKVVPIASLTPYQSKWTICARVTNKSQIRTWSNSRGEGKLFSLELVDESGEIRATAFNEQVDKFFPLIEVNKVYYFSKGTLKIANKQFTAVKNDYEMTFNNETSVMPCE

Sequence of scRPA70A (DNA-binding domain A of RPA70) (P22336 181-294): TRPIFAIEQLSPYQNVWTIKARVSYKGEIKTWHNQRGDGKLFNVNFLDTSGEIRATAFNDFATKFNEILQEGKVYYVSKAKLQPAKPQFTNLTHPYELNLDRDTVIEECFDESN

Question: Does GCGATTGCG (ssDNA) [TT-10] bind [1]?
Answer: Result: binds

Question: Does GCGATTGCG (ssDNA) [TT-10] bind [2]?
Answer: Result: binds
